What was measured:
[1] = biological target: Recombinant human pro-MSP 689R (C672A, His tag), uncleaved single chain
[2] = biological target: Recombinant human pro-MSP 689C (C672A, R689C, His tag), uncleaved single chain
Sequence of Recombinant human pro-MSP 689C (C672A, R689C, His tag), uncleaved single chain (chain, as listed by the source C672A R689C): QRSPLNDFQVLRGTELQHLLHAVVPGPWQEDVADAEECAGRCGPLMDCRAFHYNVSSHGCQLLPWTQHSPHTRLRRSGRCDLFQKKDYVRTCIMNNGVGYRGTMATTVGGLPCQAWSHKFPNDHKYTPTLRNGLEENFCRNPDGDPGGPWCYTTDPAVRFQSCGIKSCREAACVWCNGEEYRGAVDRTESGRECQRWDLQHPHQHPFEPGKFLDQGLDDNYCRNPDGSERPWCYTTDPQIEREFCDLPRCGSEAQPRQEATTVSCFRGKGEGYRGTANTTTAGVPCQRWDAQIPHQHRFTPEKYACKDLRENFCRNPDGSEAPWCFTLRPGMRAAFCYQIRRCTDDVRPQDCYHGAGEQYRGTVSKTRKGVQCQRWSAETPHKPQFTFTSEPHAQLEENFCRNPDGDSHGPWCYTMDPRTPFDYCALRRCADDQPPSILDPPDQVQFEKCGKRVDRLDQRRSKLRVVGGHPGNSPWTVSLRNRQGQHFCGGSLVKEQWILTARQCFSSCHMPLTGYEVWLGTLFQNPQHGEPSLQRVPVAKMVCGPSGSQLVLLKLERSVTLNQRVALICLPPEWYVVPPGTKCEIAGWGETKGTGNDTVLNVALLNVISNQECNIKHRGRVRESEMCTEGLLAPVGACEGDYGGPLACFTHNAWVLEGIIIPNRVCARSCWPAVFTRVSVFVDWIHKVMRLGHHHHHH

Sequence of Recombinant human pro-MSP 689R (C672A, His tag), uncleaved single chain (chain, as listed by the source C672A): as the sequence (chain, as listed by the source C672A R689C) above, with C671R counted along it

B1: sHepsin (extracellular domain of human recombinant hepsin with C-terminal His-tag) (protein)
chain: RSDQEPLYPVQVSSADARLMVFDKTEGTWRLLCSSRSNARVAGLSCEEMGFLRALTHSELDVRTAGANGTSGFFCVDEGRLPHTQRLLEVISVCDCPRGRFLAAICQDCGRRKLPVDDDDKIVGGRDTSLGRWPWQVSLRYDGAHLCGGSLLSGDWVLTAAHCFPERNRVLSRWRVFAGAVAQASPHGLQLGVQAVVYHGGYLPFRDPNSEENSNDIALVHLSSPLPLTEYIQPVCLPAAGQALVDGKICTVTGWGNTQYYGQQAGVLQEARVPIISNDVCNGADFYGNQIKPKMFCAGYPEGGIDACQGDSGGPFVCEDSISRTPRWRLCGIVSWGTGCALAQKPGVYTKVSDFREWIFQAIKTHSEASGMVTQLHHHHHHHH
- proteolytic cleavage of pro-MSP by hepsin, SDS-PAGE under reducing conditions, 1 h at 37 C [1]: No obvious difference was observed in the concentration of hepsin required to completely cleave these variants over a 1-hour period
- proteolytic cleavage of pro-MSP by hepsin, SDS-PAGE under reducing conditions, 1 h at 37 C [2]: No obvious difference was observed in the concentration of hepsin required to completely cleave these variants over a 1-hour period
